Measured values from paper PMC7498314, “Microcephaly family protein MCPH1 stabilizes RAD51 filaments” (Nucleic Acids Research, 2020).

T1: MCPH1 (tag-free) (Mus musculus, UniProt Q7TT79 1-822)
T1 sequence: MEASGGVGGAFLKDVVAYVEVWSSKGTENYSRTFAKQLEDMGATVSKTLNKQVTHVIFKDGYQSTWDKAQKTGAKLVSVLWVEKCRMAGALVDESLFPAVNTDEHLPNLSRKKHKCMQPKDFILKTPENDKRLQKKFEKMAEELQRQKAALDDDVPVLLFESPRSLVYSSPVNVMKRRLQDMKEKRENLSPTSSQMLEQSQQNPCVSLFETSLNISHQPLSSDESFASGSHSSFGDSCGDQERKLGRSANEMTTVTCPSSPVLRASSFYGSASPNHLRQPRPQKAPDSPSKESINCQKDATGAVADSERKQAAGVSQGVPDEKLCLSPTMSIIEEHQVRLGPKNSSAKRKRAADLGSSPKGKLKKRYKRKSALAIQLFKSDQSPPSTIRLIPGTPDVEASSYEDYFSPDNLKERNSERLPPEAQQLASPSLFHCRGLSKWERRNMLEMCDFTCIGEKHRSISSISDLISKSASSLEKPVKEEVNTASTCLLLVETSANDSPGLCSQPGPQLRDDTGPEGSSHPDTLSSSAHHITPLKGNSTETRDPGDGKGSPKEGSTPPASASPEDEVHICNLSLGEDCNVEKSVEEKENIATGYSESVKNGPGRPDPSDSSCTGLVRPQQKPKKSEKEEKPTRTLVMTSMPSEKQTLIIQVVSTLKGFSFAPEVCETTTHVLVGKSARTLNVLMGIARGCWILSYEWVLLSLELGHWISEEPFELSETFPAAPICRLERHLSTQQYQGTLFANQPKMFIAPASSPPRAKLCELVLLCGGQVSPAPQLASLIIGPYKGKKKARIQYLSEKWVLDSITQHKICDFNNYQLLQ

T2: (His)6-MBP-tagged mouse MCPH1 (Microcephalin 1) (mouse, UniProt Q7TT79 1-822)
T2 construct: mouse MCPH1 (microcephalin 1), wild type, cDNA NM_173189.2; calculated molecular mass of the untagged protein 90,372 Da; A PreScission protease site lies between the (His)6-MBP tag and MCPH1; the uncleaved, tagged protein was used in the pull-downs; Tag-free MCPH1 (tag cleaved) was used in the Benzonase protection and TPM assays; also called (His)6-MBP-MCPH1; wild-type MCPH1; source: Expi293F …
T2 sequence (looked up): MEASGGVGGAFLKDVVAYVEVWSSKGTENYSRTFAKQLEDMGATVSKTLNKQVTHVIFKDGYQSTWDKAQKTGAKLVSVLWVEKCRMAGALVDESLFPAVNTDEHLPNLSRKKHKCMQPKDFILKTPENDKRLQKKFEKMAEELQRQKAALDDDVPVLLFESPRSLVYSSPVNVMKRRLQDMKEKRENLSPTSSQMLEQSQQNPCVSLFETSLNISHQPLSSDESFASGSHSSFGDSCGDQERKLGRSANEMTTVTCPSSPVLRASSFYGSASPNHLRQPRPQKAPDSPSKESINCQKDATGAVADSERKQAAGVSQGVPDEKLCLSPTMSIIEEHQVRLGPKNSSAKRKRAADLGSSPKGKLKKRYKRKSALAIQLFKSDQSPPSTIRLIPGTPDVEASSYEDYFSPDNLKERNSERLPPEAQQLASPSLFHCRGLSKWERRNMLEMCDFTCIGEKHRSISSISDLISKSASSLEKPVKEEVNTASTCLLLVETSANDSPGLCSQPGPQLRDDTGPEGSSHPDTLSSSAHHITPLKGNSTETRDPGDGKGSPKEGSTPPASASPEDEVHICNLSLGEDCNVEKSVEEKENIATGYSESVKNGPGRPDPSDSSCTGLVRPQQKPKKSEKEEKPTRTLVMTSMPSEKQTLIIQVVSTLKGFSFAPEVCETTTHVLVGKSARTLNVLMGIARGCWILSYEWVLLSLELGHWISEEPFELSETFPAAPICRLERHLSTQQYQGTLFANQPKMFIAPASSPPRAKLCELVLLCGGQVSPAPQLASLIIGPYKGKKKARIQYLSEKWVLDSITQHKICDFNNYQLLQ

B1: Strep-tagged mouse RAD51 (natural protein, UniProt Q08297 1-339, looked up)
chain: MAMQMQLEASADTSVEEESFGPQPISRLEQCGINANDVKKLEEAGYHTVEAVAYAPKKELINIKGISEAKADKILTEAAKLVPMGFTTATEFHQRRSEIIQITTGSKELDKLLQGGIETGSITEMFGEFRTGKTQICHTLAVTCQLPIDRGGGEGKAMYIDTEGTFRPERLLAVAERYGLSGSDVLDNVAYARGFNTDHQTQLLYQASAMMVESRYALLIVDSATALYRTDYSGRGELSARQMHLARFLRMLLRLADEFGVAVVITNQVVAQVDGAAMFAADPKKPIGGNIIAHASTTRLYLRKGRGETRICKIYDSPCLPEAEAMFAINADGVGDAKD
notes: mouse RAD51 recombinase; (His)6-tagged mouse RAD51 was used in the Benzonase protection and TPM assays; also called RAD51 recombinase
B2: Strep-tagged mouse DMC1 (natural protein, UniProt Q61880 1-340, looked up)
chain: MKEDQVVQEESGFQDDEESLFQDIDLLQKHGINMADIKKLKSVGICTIKGIQMTTRRALCNVKGLSEAKVEKIKEAANKLIEPGFLTAFQYSERRKMVFHITTGSQEFDKLLGGGIESMAITEAFGEFRTGKTQLSHTLCVTAQLPGTGGYSGGKIIFIDTENTFRPDRLRDIADRFNVDHEAVLDNVLYARAYTSEHQMELLDYVAAKFHEEAGIFKLLIIDSIMALFRVDFSGRGELAERQQKLAQMLSRLQKISEEYNVAVFVTNQMTADPGATMTFQADPKKPIGGHILAHASTTRISLRKGRGELRIAKIYDSPEMPENEATFAITAGGIGDAKE
notes: mouse DMC1, the meiotic RAD51 homolog; (His)6-tagged mouse DMC1 was used in the Benzonase protection assay; also called meiotic recombinase DMC1

What was measured:
Strep-tagged mouse DMC1 = target: B2; assay: pull-down; (His)6-SUMO-tagged MCPH1 fragments (2 μg) with Strep-tagged RAD51 or DMC1 (2 μg), same procedure (buffer D, Benzonase, Talon resin); SDS-PAGE and western blot with RAD51 or DMC1 antibody; settings: both partners purified
Strep-tagged mouse RAD51 = target: B1; assay: as above; settings: both partners purified
MCPH1 (tag-free) = target: T1, MCPH1 (tag-free); assay: EMSA; 50 mM KCl; EMSA: 35 mM Tris-HCl pH 7.5, 1 mM DTT, 50 mM KCl, 0.1 ug/ul BSA, 37 C, 5 min; DNA 750 nM (oligos) or 6 uM (PhiX174) nucleotides/bp. TPM: 100 mM KCl (150 mM high salt); settings: protein: recombinant, tags: none (His6-MBP removed with PreScission)
[1] = target: T2, (His)6-MBP-tagged mouse MCPH1 …; assay: pull-down; (His)6-MBP-MCPH1 (4 μg) incubated with recombinase (1 μg) in 30 μl buffer D (25 mM Tris-HCl pH 7.5, 10% glycerol, 0.01% Igepal, 100 mM KCl, 10 mM imidazole) 30 min at 37°C with Benzonase and 2 mM MgCl2; captured on Talon resin via the (His)6 tag; SDS-PAGE with Coomassie Blue staining; settings: both partners purified

binding result (Strep-tagged mouse DMC1) | binding result (Strep-tagged mouse RAD51) | Binder | further results
binds | binds | (His)6-SUMO-tagged mouse MCPH1 fragment, amino acids 287-383 (central region containing the nuclear localization signal) (domain or fragment, UniProt Q7TT79 287-383, looked up, mouse MCPH1, residues 287-383, containing the nuclear localization signal; also called truncated MCPH1 variant; source: E. coli BL21*(DE3)(pLys), purified (Ni-NTA); not shown: His6, N-terminal, kept; SUMO, N-terminal, kept) DSPSKESINCQKDATGAVADSERKQAAGVSQGVPDEKLCLSPTMSIIEEHQVRLGPKNSSAKRKRAADLGSSPKGKLKKRYKRKSALAIQLFKSDQS | –
– | – | Oligo 3 ssDNA (ssDNA) DNA: GCCGTCGCATGACGCTGCCGAATTCTACCACGCTACTAGGGTGCCTTGCTAGGACATCTTTGCCCACCTGCAGGTTCACCCCGTCCCTGGC | binding result (MCPH1 (tag-free); label: 5'-32P, single strand): binds
– | – | D-loop (Oligo 2+3+4) (mixed) DNA 1: GCCGTCGCATGACGCTGCCGAATTCTACCACGCTACTAGGGTGCCTTGCTAGGACATCTTTGCCCACCTGCAGGTTCACCCCGTCCCTGGC DNA 2: GCCAGGGACGGGGTGAACCTGCAGGTGGGCGGCTGCTCATCGTAGGTTAGTATCGACCTATTGGTAGAATTCGGCAGCGTCATGCGACGGC DNA 3: AAGATGTCCTAGCAAGGCACCCTAGTAGC | binding result (MCPH1 (tag-free); label: 5'-32P on Oligo 3, D-loop, Oligo 2 and 3 pair at both ends, Oligo 4 pairs in the bubble of Oligo 3): binds
– | – | dsDNA (Oligo 5+9) (dsDNA) DNA 1: ACGCTGCCGAATTCTACCAGTGCCTTGCTAGGACATCTTTGCCCACCTGCAGGTTCACCC DNA 2: GGGTGAACCTGCAGGTGGGCAAAGATGTCCTAGCAAGGCACTGGTAGAATTCGGCAGCGT | binding result (MCPH1 (tag-free); label: 5'-32P on Oligo 5, blunt): binds
– | – | Holliday junction (Oligo 5+6+7+8) (structured_DNA) DNA 1: ACGCTGCCGAATTCTACCAGTGCCTTGCTAGGACATCTTTGCCCACCTGCAGGTTCACCC DNA 2: GGGTGAACCTGCAGGTGGGCAAAGATGTCCATCTGTTGTAATCGTCAAGCTTTATGCCGT DNA 3: ACGGCATAAAGCTTGACGATTACAACAGATCATGGAGCTGTCTAGAGGATCCGACTATCG DNA 4: CGATAGTCGGATCCTCTAGACAGCTCCATGTAGCAAGGCACTGGTAGAATTCGGCAGCGT | binding result (MCPH1 (tag-free); label: 5'-32P on Oligo 5, four-way junction 1:2 2:3 3:4 4:1): binds
– | – | 3'-overhang DNA (Oligo 5+10) (mixed) DNA 1: ACGCTGCCGAATTCTACCAGTGCCTTGCTAGGACATCTTTGCCCACCTGCAGGTTCACCC DNA 2: AGGCACTGGTAGAATTCGGCAGCGT | binding result (MCPH1 (tag-free); label: 5'-32P on Oligo 5, 3' overhang 35 nt): binds
– | – | B1 | binding result [1]: binds
binds | binds | (His)6-SUMO-tagged mouse MCPH1 fragment, amino acids 384-476 (central region containing a Condensin-II binding region) (domain or fragment, UniProt Q7TT79 384-476, looked up, also called truncated MCPH1 variant; source: E. coli BL21*(DE3)(pLys), purified (Ni-NTA); not shown: His6, N-terminal, kept; SUMO, N-terminal, kept) PPSTIRLIPGTPDVEASSYEDYFSPDNLKERNSERLPPEAQQLASPSLFHCRGLSKWERRNMLEMCDFTCIGEKHRSISSISDLISKSASSLE | –
binds | binds | (His)6-SUMO-tagged mouse MCPH1 fragment, amino acids 1-190 (N-terminus, containing BRCT1) (domain or fragment, UniProt Q7TT79 1-190, looked up, mouse MCPH1, residues 1-190, containing BRCT1; also called truncated MCPH1 variant; source: E. coli BL21*(DE3)(pLys), purified (Ni-NTA); not shown: His6, N-terminal, kept; SUMO, N-terminal, kept) MEASGGVGGAFLKDVVAYVEVWSSKGTENYSRTFAKQLEDMGATVSKTLNKQVTHVIFKDGYQSTWDKAQKTGAKLVSVLWVEKCRMAGALVDESLFPAVNTDEHLPNLSRKKHKCMQPKDFILKTPENDKRLQKKFEKMAEELQRQKAALDDDVPVLLFESPRSLVYSSPVNVMKRRLQDMKEKRENLS | –
binds | binds | (His)6-SUMO-tagged mouse MCPH1 fragment, amino acids 628-822 (C-terminus, containing BRCT2 and BRCT3) (domain or fragment, UniProt Q7TT79 628-822, looked up, mouse MCPH1, residues 628-822, containing BRCT2 and BRCT3; also called truncated MCPH1 variant; source: E. coli BL21*(DE3)(pLys), purified (Ni-NTA); not shown: His6, N-terminal, kept; SUMO, N-terminal, kept) EKEEKPTRTLVMTSMPSEKQTLIIQVVSTLKGFSFAPEVCETTTHVLVGKSARTLNVLMGIARGCWILSYEWVLLSLELGHWISEEPFELSETFPAAPICRLERHLSTQQYQGTLFANQPKMFIAPASSPPRAKLCELVLLCGGQVSPAPQLASLIIGPYKGKKKARIQYLSEKWVLDSITQHKICDFNNYQLLQ | –
– | – | B2 | binding result [1]: binds
